# Measured values from article PMC4540782, “Latent and active aurone synthase from petals of C. grandiflora: a polyphenol oxidase with unique characteristics” (Planta, 2015).
# How the values were obtained:
# [1] = target: T1, latent recombinant cgAUS1 (pro-cgAUS1) (Coreopsis grandiflora, UniProt A0A075DN54); assay: spectrophotometric pH profile; type: biochemical; settings: 25 µM butein, 125 mM sodium citrate, pH 3.5 to 7.4; no allosteric activation
# T1 construct: heterologously expressed latent pro-enzyme with C-terminal shielding domain
# T1 sequence (A0A075DN54 86-602): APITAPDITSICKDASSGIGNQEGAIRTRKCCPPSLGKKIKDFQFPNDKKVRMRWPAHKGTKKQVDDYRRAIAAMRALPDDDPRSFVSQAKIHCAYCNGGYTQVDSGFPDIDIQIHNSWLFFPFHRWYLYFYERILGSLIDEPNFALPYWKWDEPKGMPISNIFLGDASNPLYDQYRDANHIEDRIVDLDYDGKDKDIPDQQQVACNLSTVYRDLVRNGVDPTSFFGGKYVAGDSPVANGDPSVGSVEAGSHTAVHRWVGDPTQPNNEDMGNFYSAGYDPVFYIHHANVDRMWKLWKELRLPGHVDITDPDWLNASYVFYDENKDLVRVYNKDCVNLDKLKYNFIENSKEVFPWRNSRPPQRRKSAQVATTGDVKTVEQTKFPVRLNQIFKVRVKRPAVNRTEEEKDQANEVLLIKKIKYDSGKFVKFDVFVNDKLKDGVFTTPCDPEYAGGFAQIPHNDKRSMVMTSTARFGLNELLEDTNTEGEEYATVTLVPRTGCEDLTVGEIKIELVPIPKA
# [2] = test system: T2, O=C(/C=C/c1ccc(O)c(O)c1)c1ccc(O)cc1O; assay: purified protein; type: biochemical, Coreopsis grandiflora; settings: pH 5.5, diphenolase, butein to sulfuretin
# T2 construct: main core API-IENSKE plus disulfide-linked C-terminal peptide D438-G452; partly phosphorylated or sulfated at Tyr230
# Oc1ccccc1O = test system: T3, Oc1ccccc1O; assay: purified protein; type: biochemical, Coreopsis grandiflora; settings: pH 5.5
# T3 construct: main core API-IENSKE plus disulfide-linked C-terminal peptide D438-G452; partly phosphorylated or sulfated at Tyr230
# Cc1ccc(O)c(O)c1 = test system: T4, Cc1ccc(O)c(O)c1; assay: purified protein; type: biochemical, Coreopsis grandiflora; settings: pH 5.5, suicide substrate
# T4 construct: main core API-IENSKE plus disulfide-linked C-terminal peptide D438-G452; partly phosphorylated or sulfated at Tyr230
# CC(C)(C)c1ccc(O)c(O)c1 = test system: T5, CC(C)(C)c1ccc(O)c(O)c1; assay: purified protein; type: biochemical, Coreopsis grandiflora; settings: pH 5.5, suicide substrate
# T5 construct: main core API-IENSKE plus disulfide-linked C-terminal peptide D438-G452; partly phosphorylated or sulfated at Tyr230
Compound,spectrophotometric pH profile [1],Km [2] [µM],Vmax [2] [µmol/min/mg],kcat [2] [s⁻¹],kcat/Km [2] [M⁻¹ s⁻¹],Km (Oc1ccccc1O) [µM],kcat (Oc1ccccc1O) [s⁻¹],kcat/Km (Oc1ccccc1O) [M⁻¹ s⁻¹],Km (Cc1ccc(O)c(O)c1) [µM],Vmax (Cc1ccc(O)c(O)c1) [µmol/min/mg],kcat (Cc1ccc(O)c(O)c1) [s⁻¹],kcat/Km (Cc1ccc(O)c(O)c1) [M⁻¹ s⁻¹],Km (CC(C)(C)c1ccc(O)c(O)c1) [µM],Vmax (CC(C)(C)c1ccc(O)c(O)c1) [µmol/min/mg],kcat (CC(C)(C)c1ccc(O)c(O)c1) [s⁻¹]
O=C(/C=C/c1ccc(O)c(O)c1)c1ccc(O)cc1O [Butein],"pH optimum of recombinant pro-cgAUS1 (filled triangle, dashed lines) and active cgAUS1",–,–,–,–,–,–,–,–,–,–,–,–,–,–
"active cgAUS1 (aurone synthase), sample 1 (Coreopsis grandiflora; DEL436-522)",–,52 ± 3,489,464 ± 16,8.93e+06 ± 649000,4040 ± 690,869 ± 41,215000 ± 38000,3110 ± 120,2300 ± 39,1590 ± 27,512000 ± 22000,504 ± 20,2260 ± 23,1560 ± 16
